Measurements as given in patent publication US20160237160A1 (Bayer, published 2016).
Substitutions are numbered along the chain they refer to. Names may count otherwise.

Columns and labels:
[1] = target: TPP-1988 (hTNFRSF12Aaa28-80-M50A-hIgG1-Fc) (human); experiment: ELISA, TWEAKR-Fc coated 62 ng/ml, biotin-IgG titrated; + means IC50 1 to 150 pM;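 note: biotinylated IgG binding to immobilized TWEAKR-Fc muteins, detected with Streptavidin-HRP and Amplex Red, IC50 derived from fitted dose-response curves of twofold serial dilutions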
Method: To collect dose-response data, the different TWEAKR-Fc muteins were coated with a low concentration (62 ng/ml) in a 384-well Maxisorb ELISA plate and a serial 2fold dilution of biotinylated IgG starting with a concentration of 100 nM was used as soluble binding partner. Detection was done with Streptavidin-HRP and Amplex Red.
The dose-response data were fitted and IC50s determined.

[2] = target: T1, TPP-2614 (TweakR-ECD-34-68-hIgGFc-His-D47A) (human); experiment: ELISA, PDL-192(TPP-1104) coated at 1 µg/ml, eight-fold diluted HEK293 supernatant with the TWEAKR(34-68)-Fc mutein, anti-HIS-HRP, Amplex Red
T1 construct: also called D47A TWEAKR mutein
Method: S37A, R38A, S40A, W42A, S43A, D45A, D47A, K48A, D51A, S54A, R56A, R58A, P59A, H60A, S61A, D62A, F63A and L65A muteins were expressed in HEK293 cells (black diamonds).
These TWEAKR(34-68)-Fc muteins were expressed in HEK293 cells. To collect dose-response data, IgGs were coated at a concentration of 1 μg/ml in a 384-well Maxisorp ELISA plate and a serial 2fold dilution of the TWEAKR mutein containing supernatant was used as soluble binding partner. Detection was done with anti-HIS-HRP and Amplex Red.

[3] = target: T2, TPP-599 (HUMAN-TNFRSF12Aaa28-80-hIgG1-Fc) (human); experiment: ELISA, 2.5 nM biotinylated TWEAKR-Fc coated, soluble Fab, anti-c-Myc detection
T2 construct: dimeric; also called human TWEAKR Fc; TWEAKR-Fc

B1: PDL-192(TPP-1104) (antibody, human IgG1, kappa, V domains shown)
VH: QVELVESGGGLVQPGGSLRLSCAASGFTFSSYWMSWVRQAPGKGLEWVAEIRLKSDNYATHYAESVKGRFTISRDDSKNSLYLQMNSLRAEDTAVYYCTGYYADAMDYWGQGTLVTVSS
VL: DIQMTQSPSSLSASVGDRVTITCRASQSVSTSSYSYMHWYQQKPGKAPKLLIKYASNLESGVPSRFSGSGSGTDFTLTISSLQPEDFATYYCQHSWEIPYTFGGGTKVEIKR
notes: Human IgG1; variable domains from WO2009/020933 with constant region added
binding result [1]: binds | binding result [2]: binds

B2: TPP-883 Fab variant G97F of CDR-L3 (Fab, V domains shown)
VH: EVQLLESGGGLVQPGGSLRLSCAASGFTFSPYPMMWVRQAPGKGLEWVSYISPSGGKTHYADSVKGRFTISRDNSKNTLYLQMNSLRAEDTAVYYCARGGDGYFDYFDYWGQGTLVTVSS
VL: DIQMTQSPATLSASVGDRVTITCRASQSISSYLNWYQQKPGKAPKLLIYAASSLQSGVPSRFSGSGSGTDFTLTISSLQPEDFATYYCQQSYSSPFITFGPGTKVEIK
binding result [3]: binds

B3: TPP-883 Fab variant S94T of CDR-L3 (Fab, V domains shown)
VH: B2 VH
VL: B2 VL with S93T, F96G
binding result [3]: binds
